Data reported in PMC9364786 (Journal of Virology, 2022).

Molecular target: SARS-CoV-2 subdomain 1 (SBD) protein, D614G (SARS-CoV-2, UniProt P0DTC2)
Experiment: ELISA
Conditions: both partners purified

B1: MAb 084-7D (antibody, V domains shown)
VH: EVQLLESGGGLVQPGGSLRLSCAASGFSFSSYAMNWVRQAPGKGLEWVSAISGGGDNIYYADSVKGRFTISRDNYKNTLHLQMKSLRAEDTAVYYCAKDHPSWGSSFLNWGQGILVIVSS
VL: DIQMTQSPSTLSASVGDRVTITCRASQSISSWLAWYQQKPGRAPKLLIYTASNLESGVPSRFSGSGSGTEFSLTISSLQPDDFATYYCQQYNSYSLTFGGGTRVEIK
notes: also called 084-7D MAb
  binding result: no binding (tested: 5 μg/mL starting concentration)
